# Values of other authors in patent US9394339B2, “Stabilized formulations of peptides and proteins protecting against non-enzymatic degradation” (Lyotropic Therapeutics, Inc., priority 2007, dated 2016).
# Read-outs that look alike come from different tables or passages of the source.
# Details: for T1/2 (half-life, deamidation): buffer
# [1] = aqueous solution, pH 7.4, 37° C., Tris-HCl buffer
molecule,measurement,setting,value
"Inositol monophosphatase (1IMB): human protein (protein, UniProt P29218 1-277, looked up) Inositol monophosphatase 1: MADPWQECMDYAVTLARQAGEVVCEAIKNEMNVMLKSSPVDLVTATDQKVEKMLISSIKEKYPSHSFIGEESVAAGEKSILTDNPTWIIDPIDGTTNFVHRFPFVAVSIGFAVNKKIEFGVVYSCVEGKMYTARKGKGAFCNGQKLQVSQQEDITKSLLVTELGSSRTPETVRMVLSNMEKLFCIPVHGIRSVGTAAVNMCLVATGGADAYYEMGIHCWDVAGAGIIVTEAGGVLMDVTGGPFDLMSRRVIAANNRILAERIAKEIQVIPLQRDDED","T1/2 (half-life, deamidation)",pH 7.4,15 days
same,T1/10 (time to 10% degradation by deamidation),pH 7.4,2.3 days
"Bone morphogenetic protein 7 (1BMP): human protein (protein, UniProt P18075 293-431, looked up) Bone morphogenetic protein 7: STGSKQRSQNRSKTPKNQEALRMANVAENSSSDQRQACKKHELYVSFRDLGWQDWIIAPEGYAAYYCEGECAFPLNSYMNATNHAIVQTLVHFINPETVPKPCCAPTQLNAISVLYFDDSSNVILKKYRNMVVRACGCH",T1/10 (time to 10% degradation by deamidation),[1],3.2 days
"Fructose bisphosphate aldolase (4ALD): human protein (protein, UniProt P04075 2-364, looked up) Fructose-bisphosphate …: PYQYPALTPEQKKELSDIAHRIVAPGKGILAADESTGSIAKRLQSIGTENTEENRRFYRQLLLTADDRVNPCIGGVILFHETLYQKADDGRPFPQVIKSKGGVVGIKVDKGVVPLAGTNGETTTQGLDGLSERCAQYKKDGADFAKWRCVLKIGEHTPSALAIMENANVLARYASICQQNGIVPIVEPEILPDGDHDLKRCQYVTEKVLAAVYKALSDHHIYLEGTLLKPNMVTPGHACTQKFSHEEIAMATVTALRRTVPPAVTGITFLSGGQSEEEASINLNAINKCPLLKPWALTFSYGRALQASALKAWGGKKENLKAAQEEYVKRALANSLACQGKYTPSGQAGAAASESLFVSNHAY","T1/2 (half-life, deamidation)",pH 7.4,7.6 days
same,T1/10 (time to 10% degradation by deamidation),pH 7.4,1.2 days
"Catalase (1QQW): human protein (protein, UniProt P04040 2-527, looked up) Catalase: ADSRDPASDQMQHWKEQRAAQKADVLTTGAGNPVGDKLNVITVGPRGPLLVQDVVFTDEMAHFDRERIPERVVHAKGAGAFGYFEVTHDITKYSKAKVFEHIGKKTPIAVRFSTVAGESGSADTVRDPRGFAVKFYTEDGNWDLVGNNTPIFFIRDPILFPSFIHSQKRNPQTHLKDPDMVWDFWSLRPESLHQVSFLFSDRGIPDGHRHMNGYGSHTFKLVNANGEAVYCKFHYKTDQGIKNLSVEDAARLSQEDPDYGIRDLFNAIATGKYPSWTFYIQVMTFNQAETFPFNPFDLTKVWPHKDYPLIPVGKLVLNRNPVNYFAEVEQIAFDPSNMPPGIEASPDKMLQGRLFAYPDTHRHRLGPNYLHIPVNCPYRARVANYQRDGPMCMQDNQGGAPNYYPNSFGAPEQQPSALEHSIQYSGEVRRFNTANDDNVTQVRAFYVNVLNEEQRKRLCENIAGHLKDAQIFIQKKAVKNFTEVHPDYGSHIQALLDKYNAEKPKNAIHTFVQSGSHLAAREKANL",T1/10 (time to 10% degradation by deamidation),[1],3.8 days
"Myeloperoxidase (1MHL): human protein (protein, UniProt P05164 165-745, looked up) Myeloperoxidase: VTCPEQDKYRTITGMCNNRRSPTLGASNRAFVRWLPAEYEDGFSLPYGWTPGVKRNGFPVALARAVSNEIVRFPTDQLTPDQERSLMFMQWGQLLDHDLDFTPEPAARASFVTGVNCETSCVQQPPCFPLKIPPNDPRIKNQADCIPFFRSCPACPGSNITIRNQINALTSFVDASMVYGSEEPLARNLRNMSNQLGLLAVNQRFQDNGRALLPFDNLHDDPCLLTNRSARIPCFLAGDTRSSEMPELTSMHTLLLREHNRLATELKSLNPRWDGERLYQEARKIVGAMVQIITYRDYLPLVLGPTAMRKYLPTYRSYNDSVDPRIANVFTNAFRYGHTLIQPFMFRLDNRYQPMEPNPRVPLSRVFFASWRVVLEGGIDPILRGLMATPAKLNRQNQIAVDEIRERLFEQVMRIGLDLPALNMQRSRDHGLPGYNAWRRFCGLPQPETVGQLGTVLRNLKLARKLMEQYGTPNNIDIWMGGVSEPLKRKGRVGPLLACIIGTQFRKLRDGDRFWWENEGVFSMQQRQALAQISLPRIICDNTGITTVSKNNIFMSNSYPRDFVNCSTLPALNLASWREAS",T1/10 (time to 10% degradation by deamidation),[1],2.4 days
"Karyopherin 2 (1QBK): human protein (protein, UniProt Q92973 1-898, looked up) Transportin-1: MVWDRQTKMEYEWKPDEQGLQQILQLLKESQSPDTTIQRTVQQKLEQLNQYPDFNNYLIFVLTKLKSEDEPTRSLSGLILKNNVKAHFQNFPNGVTDFIKSECLNNIGDSSPLIRATVGILITTIASKGELQNWPDLLPKLCSLLDSEDYNTCEGAFGALQKICEDSAEILDSDVLDRPLNIMIPKFLQFFKHSSPKIRSHAVACVNQFIISRTQALMLHIDSFIENLFALAGDEEPEVRKNVCRALVMLLEVRMDRLLPHMHNIVEYMLQRTQDQDENVALEACEFWLTLAEQPICKDVLVRHLPKLIPVLVNGMKYSDIDIILLKGDVEEDETIPDSEQDIRPRFHRSRTVAQQHDEDGIEEEDDDDDEIDDDDTISDWNLRKCSAAALDVLANVYRDELLPHILPLLKELLFHHEWVVKESGILVLGAIAEGCMQGMIPYLPELIPHLIQCLSDKKALVRSITCWTLSRYAHWVVSQPPDTYLKPLMTELLKRILDSNKRVQEAACSAFATLEEEACTELVPYLAYILDTLVFAFSKYQHKNLLILYDAIGTLADSVGHHLNKPEYIQMLMPPLIQKWNMLKDEDKDLFPLLECLSSVATALQSGFLPYCEPVYQRCVNLVQKTLAQAMLNNAQPDQYEAPDKDFMIVALDLLSGLAEGLGGNIEQLVARSNILTLMYQCMQDKMPEVRQSSFALLGDLTKACFQHVKPCIADFMPILGTNLNPEFISVCNNATWAIGEISIQMGIEMQPYIPMVLHQLVEIINRPNTPKTLLENTAITIGRLGYVCPQEVAPMLQQFIRPWCTSLRNIRDNEEKDSAFRGICTMISVNPSGVIQDFIFFCDAVASWINPKDDLRDMFCKILHGFKNQVGDENWRRFSDQFPLPLKERLAAFYGV",T1/10 (time to 10% degradation by deamidation),[1],0.81 days
"Dihydrofolate reductase (1DRF): human protein (protein, UniProt P00374 1-187, looked up) Dihydrofolate reductase: MVGSLNCIVAVSQNMGIGKNGDLPWPPLRNEFRYFQRMTTTSSVEGKQNLVIMGKKTWFSIPEKNRPLKGRINLVLSRELKEPPQGAHFLSRSLDDALKLTEQPELANKVDMVWIVGGSSVYKEAMNHPGHLKLFVTRIMQDFESDTFFPEIDLEKYKLLPEYPGVLSDVQEEKGIKYKFEVYEKND","T1/2 (half-life, deamidation)",pH 7.4,25 days
same,T1/10 (time to 10% degradation by deamidation),pH 7.4,3.8 days
"S-adenosylhomocysteine hydrolase (1A7A): human protein (protein, UniProt P23526 2-432, looked up) Adenosylhomocysteinase: SDKLPYKVADIGLAAWGRKALDIAENEMPGLMRMRERYSASKPLKGARIAGCLHMTVETAVLIETLVTLGAEVQWSSCNIFSTQDHAAAAIAKAGIPVYAWKGETDEEYLWCIEQTLYFKDGPLNMILDDGGDLTNLIHTKYPQLLPGIRGISEETTTGVHNLYKMMANGILKVPAINVNDSVTKSKFDNLYGCRESLIDGIKRATDVMIAGKVAVVAGYGDVGKGCAQALRGFGARVIITEIDPINALQAAMEGYEVTTMDEACQEGNIFVTTTGCIDIILGRHFEQMKDDAIVCNIGHFDVEIDVKWLNENAVEKVNIKPQVDRYRLKNGRRIILLAEGRLVNLGCAMGHPSFVMSNSFTNQVMAQIELWTHPDKYPVGVHFLPKKLDEAVAEAHLGKLNVKLTKLTEKQAQYLGMSCDGPFKPDHYRY",T1/10 (time to 10% degradation by deamidation),[1],4.3 days
"Interleukin-16 (1I16): human protein (protein, UniProt Q14005 1212-1332, looked up) Interleukin-16: SAASASAASDVSVESTAEATVCTVTLEKMSAGLGFSLEGGKGSLHGDKPLTINRIFKGAASEQSETVQPGDEILQLGGTAMQGLTRFEAWNIIKALPDGPVTIVIRRKSLQSKETTAAGDS",T1/10 (time to 10% degradation by deamidation),[1],2.6 days
"Farnesyltransferase (1EZF): human protein (protein, UniProt P37268 1-417, looked up) Squalene synthase: MEFVKCLGHPEEFYNLVRFRIGGKRKVMPKMDQDSLSSSLKTCYKYLNQTSRSFAAVIQALDGEMRNAVCIFYLVLRALDTLEDDMTISVEKKVPLLHNFHSFLYQPDWRFMESKEKDRQVLEDFPTISLEFRNLAEKYQTVIADICRRMGIGMAEFLDKHVTSEQEWDKYCHYVAGLVGIGLSRLFSASEFEDPLVGEDTERANSMGLFLQKTNIIRDYLEDQQGGREFWPQEVWSRYVKKLGDFAKPENIDLAVQCLNELITNALHHIPDVITYLSRLRNQSVFNFCAIPQVMAIATLAACYNNQQVFKGAVKIRKGQAVTLMMDATNMPAVKAIIYQYMEEIYHRIPDSDPSSSKTRQIISTIRTQNLPNCQLISRSHYSPIYLSFVMLLAALSWQYLTTLSQVTEDYVQTGEH",T1/10 (time to 10% degradation by deamidation),[1],4.0 days
"Pepsinogen (1HTR): human protein (protein, UniProt P20142 17-388, looked up, pro-form) pro-form: AVVKVPLKKFKSIRETMKEKGLLGEFLRTHKYDPAWKYRFGDLSVTYEPMAYMDAAYFGEISIGTPPQNFLVLFDTGSSNLWVPSVYCQSQACTSHSRFNPSESSTYSTNGQTFSLQYGSGSLTGFFGYDTLTVQSIQVPNQEFGLSENEPGTNFVYAQFDGIMGLAYPALSVDEATTAMQGMVQEGALTSPVFSVYLSNQQGSSGGAVVFGGVDSSLYTGQIYWAPVTQELYWQIGIEEFLIGGQASGWCSEGCQAIVDTGTSLLTVPQQYMSALLQATGAQEDEYGQFLVNCNSIQNLPSLTFIINGVEFPLPPSSYILSNNGYCTVGVEPTYLSSQNGQPLWILGDVFLRSYYSVYDLGNNRVGFATAA",T1/10 (time to 10% degradation by deamidation),[1],3.0 days
"Acetylcholinesterase (1F8U): human protein (protein, UniProt P22303 32-614, looked up) Acetylcholinesterase: EGREDAELLVTVRGGRLRGIRLKTPGGPVSAFLGIPFAEPPMGPRRFLPPEPKQPWSGVVDATTFQSVCYQYVDTLYPGFEGTEMWNPNRELSEDCLYLNVWTPYPRPTSPTPVLVWIYGGGFYSGASSLDVYDGRFLVQAERTVLVSMNYRVGAFGFLALPGSREAPGNVGLLDQRLALQWVQENVAAFGGDPTSVTLFGESAGAASVGMHLLSPPSRGLFHRAVLQSGAPNGPWATVGMGEARRRATQLAHLVGCPPGGTGGNDTELVACLRTRPAQVLVNHEWHVLPQESVFRFSFVPVVDGDFLSDTPEALINAGDFHGLQVLVGVVKDEGSYFLVYGAPGFSKDNESLISRAEFLAGVRVGVPQVSDLAAEAVVLHYTDWLHPEDPARLREALSDVVGDHNVVCPVAQLAGRLAAQGARVYAYVFEHRASTLSWPLWMGVPHGYEIEFIFGIPLDPSRNYTAEEKIFAQRLMRYWANFARTGDPNEPRDPKAPQWPPYTAGAQQYVSLDLRPLEVRRGLRAQACAFWNRFLPKLLSATDTLDEAERQWKAEFHRWSSYMVHWKNQFDHYSKQDRCSDL",T1/10 (time to 10% degradation by deamidation),[1],3.5 days
